Patent US6121020, “Hepatitis C E1 and E2 polypeptides and methods of obtaining the same” (Chiron Corporation, dated 2000)

Target: probable NS4B (27 kDa), expressed from pTM1-NS25 (hepatitis C virus, UniProt P26664)
Experiment: co-immunoprecipitation with anti-E2 antibody from lysates of cells co-transfected with pTM1-NS25

B1: E2 species encoded by the template terminating at amino acid 699 (other)
chain: ETHVTGGSAGHTVSGFVSLLAPGAKQNVQLINTNGSWHLNSTALNCNDSLNTGWLAGLFYHHKFNSSGCPERLASCRPLTDFDQGWGPISYANGSGPDQRPYCWHYPPKPCGIVPAKSVCGPVYCFTPSPVVVGTTDRSGAPTYSWGENDTDVFVLNNTRPPLGNWFGCTWMNSTGFTKVCGAPPCVIGGAGNNTLHCPTDCFRKHPDATYSRCGSGPWITPRCLVDYPYRLWHYPCTINYTIFKIRMYVGGVEHRLEAACNWTRGERCDLEDRDRSELSPLLLTTTQWQVLPCSFTTLPALSTGLIHLHQNIVDV
B1: no binding.
